In patent US20210163555:

B1: His6-E6AP (protein)
chain: MEKLHQCYWKSGEPQSDDIEASRMKRAAAKHLIERYYHQLTEGCGNEACTNEFCASCPTFLRMDNNAAAIKALELYKINAKLCDPHPSKKGASSAYLENSKGAPNNSCSEIKMNKKGARIDFKDVTYLTEEKVYEILELCREREDYSPLIRVIGRVFSSAEALVQSFRKVKQHTKEELKSLQAKDEDKDEDEKEKAACSAAAMEEDSEASSSRIGDSSQGDNNLQKLGPDDVSVDIDAIRRVYTRLLSNEKIETAFLNALVYLSPNVECDLTYHNVYSRDPNYLNLFIIVMENRNLHSPEYLEMALPLFCKAMSKLPLAAQGKLIRLWSKYNADQIRRMMETFQQLITYKVISNEFNSRNLVNDDDAIVAASKCLKMVYYANVVGGEVDTNHNEEDDEEPIPESSELTLQELLGEERRNKKGPRVDPLETELGVKTLDCRKPLIPFEEFINEPLNEVLEMDKDYTFFKVETENKFSFMTCPFILNAVTKNLGLYYDNRIRMYSERRITVLYSLVQGQQLNPYLRLKVRRDHIIDDALVRLEMIAMENPADLKKQLYVEFEGEQGVDEGGVSKEFFQLVVEEIFNPDIGMFTYDESTKLFWFNPSSFETEGQFTLIGIVLGLAIYNNCILDVHFPMVVYRKLMGKKGTFRDLGDSHPVLYQSLKDLLEYEGNVEDDMMITFQISQTDLFGNPMMYDLKENGDKIPITNENRKEFVNLYSDYILNKSVEKQFKAFRRGFHMVTNESPLKYLFRPEEIELLICGSRNLDFQALEETTEYDGGYTRDSVLIREFWEIVHSFTDEQKRLFLQFTTGTDRAPVGGLGKLKMIIAKNGPDTERLPTSHTCFNVLLLPEYSSKEKLKERLLKAITYAKGFGML

Tests used:
[1] = biological target: Recombinant human p18 (His-p18)

| Molecule | levels of ubiquitinated p18 after Ube3a siRNA KD (His-ubiquitin pull-down assay) (Flag-p18) | in vitro ubiquitination of p18 (Western blot) [1] |
| --- | --- | --- |
| endogenous Ube3a of COS-1 cells | 100.0±1.8 vs. 66.8±3.7 | – |
| B1 | – | p18 ubiquitination was only observed in the presence of Ube3a, ubiquitin, E1, E2, and ATP |
